Results published in article PMC5546038.

Experiments:
Test in all cases: ELISA
human Siglec-1 = human Siglec-1 (UniProt Q9BZZ2); settings: Fc 50 µg/ml (highest point of the titration); parent: est. 1.2; read off a plot
human FcγRIIA = human FcγRIIA (UniProt P12318); settings: Fc 20 µg/ml (highest point of the titration); parent: est. 0.53; read off a plot
human FcγRIIB = human FcγRIIB (UniProt P31994); settings: Fc 20 µg/ml (highest point of the titration); parent: est. 0.20; read off a plot
human FcγRIIIA = human FcγRIIIA (UniProt P08637); settings: Fc 20 µg/ml (highest point of the titration); parent: est. 0.99; read off a plot
human FcγRIIIB = human FcγRIIIB (UniProt O75015); settings: Fc 20 µg/ml (highest point of the titration); parent: est. 0.19; read off a plot
[1] = molecular target: soluble recombinant tetrameric human DC-SIGN (UniProt Q9NNX6); settings: Fc 20 µg/ml (highest point of the titration); parent: est. 0.98; read off a plot
human FcγRI = human FcγRI (UniProt P12314); settings: Fc 20 µg/ml (highest point of the titration); parent: est. 2.1; read off a plot
C1q = settings: Ab 20 µg/ml (highest point of the titration); parent: est. 1.7; read off a plot

human FcγRIIB, sequence (P31994 43-217): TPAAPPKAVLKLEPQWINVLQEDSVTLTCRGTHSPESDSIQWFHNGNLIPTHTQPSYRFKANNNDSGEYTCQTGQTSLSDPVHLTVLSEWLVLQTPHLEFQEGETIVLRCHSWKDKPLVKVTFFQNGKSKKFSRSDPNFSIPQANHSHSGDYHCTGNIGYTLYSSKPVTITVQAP
human FcγRIIA, sequence (P12318 34-217): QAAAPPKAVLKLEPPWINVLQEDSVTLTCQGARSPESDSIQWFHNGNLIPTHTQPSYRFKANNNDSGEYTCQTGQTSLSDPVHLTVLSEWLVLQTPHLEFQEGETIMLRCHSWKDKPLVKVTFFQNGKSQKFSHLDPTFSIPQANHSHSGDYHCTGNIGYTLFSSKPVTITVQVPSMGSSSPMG
human FcγRIIIA, sequence (P08637 17-208): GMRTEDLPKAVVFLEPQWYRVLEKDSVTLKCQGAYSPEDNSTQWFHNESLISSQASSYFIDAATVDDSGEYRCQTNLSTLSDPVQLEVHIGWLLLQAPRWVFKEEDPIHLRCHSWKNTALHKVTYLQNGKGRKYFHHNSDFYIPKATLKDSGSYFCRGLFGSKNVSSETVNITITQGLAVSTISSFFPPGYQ
human FcγRI, sequence (P12314 16-292): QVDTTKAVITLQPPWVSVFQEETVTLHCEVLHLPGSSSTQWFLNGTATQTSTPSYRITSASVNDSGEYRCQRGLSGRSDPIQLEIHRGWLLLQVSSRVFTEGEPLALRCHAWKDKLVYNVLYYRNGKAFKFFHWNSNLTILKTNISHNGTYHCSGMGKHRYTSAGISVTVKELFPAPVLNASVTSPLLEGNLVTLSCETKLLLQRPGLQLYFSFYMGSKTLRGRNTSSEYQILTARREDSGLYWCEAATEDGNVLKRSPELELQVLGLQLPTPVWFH
human Siglec-1, sequence (Q9BZZ2 20-1641): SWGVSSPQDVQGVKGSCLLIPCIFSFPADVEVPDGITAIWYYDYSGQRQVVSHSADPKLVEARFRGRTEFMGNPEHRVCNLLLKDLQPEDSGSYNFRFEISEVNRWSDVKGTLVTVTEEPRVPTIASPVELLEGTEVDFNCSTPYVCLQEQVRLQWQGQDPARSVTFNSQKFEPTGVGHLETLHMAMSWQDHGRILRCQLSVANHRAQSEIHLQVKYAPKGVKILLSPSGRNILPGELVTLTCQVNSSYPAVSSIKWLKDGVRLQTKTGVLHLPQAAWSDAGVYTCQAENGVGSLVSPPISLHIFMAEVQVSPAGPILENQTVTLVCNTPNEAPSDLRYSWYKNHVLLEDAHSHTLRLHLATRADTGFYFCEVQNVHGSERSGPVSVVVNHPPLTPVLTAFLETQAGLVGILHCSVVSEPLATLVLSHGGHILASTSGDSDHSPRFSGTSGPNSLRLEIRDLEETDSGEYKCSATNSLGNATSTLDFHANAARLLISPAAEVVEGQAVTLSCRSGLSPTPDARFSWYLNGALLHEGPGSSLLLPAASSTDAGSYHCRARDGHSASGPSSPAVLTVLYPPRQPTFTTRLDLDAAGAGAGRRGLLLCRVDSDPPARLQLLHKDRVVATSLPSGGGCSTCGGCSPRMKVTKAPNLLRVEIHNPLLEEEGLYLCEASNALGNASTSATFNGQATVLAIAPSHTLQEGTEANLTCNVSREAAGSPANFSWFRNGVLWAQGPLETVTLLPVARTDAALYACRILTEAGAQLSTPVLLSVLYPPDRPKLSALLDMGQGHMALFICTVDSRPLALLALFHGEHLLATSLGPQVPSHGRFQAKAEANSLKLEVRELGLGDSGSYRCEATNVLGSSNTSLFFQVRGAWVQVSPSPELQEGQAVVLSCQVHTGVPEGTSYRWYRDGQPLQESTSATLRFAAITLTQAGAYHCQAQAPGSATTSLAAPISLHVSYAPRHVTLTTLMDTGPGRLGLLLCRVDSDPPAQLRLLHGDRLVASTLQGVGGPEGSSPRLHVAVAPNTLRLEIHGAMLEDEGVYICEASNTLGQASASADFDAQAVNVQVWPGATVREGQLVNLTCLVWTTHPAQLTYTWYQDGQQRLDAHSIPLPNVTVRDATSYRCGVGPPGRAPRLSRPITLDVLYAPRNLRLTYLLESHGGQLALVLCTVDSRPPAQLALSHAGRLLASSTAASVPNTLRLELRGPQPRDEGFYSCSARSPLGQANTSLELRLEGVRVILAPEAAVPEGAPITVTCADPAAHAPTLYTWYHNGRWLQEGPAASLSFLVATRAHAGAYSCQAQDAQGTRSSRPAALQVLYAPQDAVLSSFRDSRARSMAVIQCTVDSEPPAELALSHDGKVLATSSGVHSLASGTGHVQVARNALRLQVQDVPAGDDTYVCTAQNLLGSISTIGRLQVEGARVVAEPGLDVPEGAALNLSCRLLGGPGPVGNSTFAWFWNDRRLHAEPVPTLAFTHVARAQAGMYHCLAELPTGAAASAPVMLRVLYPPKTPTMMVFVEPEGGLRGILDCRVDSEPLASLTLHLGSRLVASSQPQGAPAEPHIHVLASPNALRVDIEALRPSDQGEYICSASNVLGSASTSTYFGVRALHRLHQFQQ
human FcγRIIIB, sequence (O75015 17-200): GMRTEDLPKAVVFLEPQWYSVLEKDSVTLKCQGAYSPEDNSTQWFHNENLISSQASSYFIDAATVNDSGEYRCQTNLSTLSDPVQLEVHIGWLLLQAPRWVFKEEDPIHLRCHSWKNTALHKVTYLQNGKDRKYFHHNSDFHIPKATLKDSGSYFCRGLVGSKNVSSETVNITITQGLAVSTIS

hexa-Fc (human IgG1-Fc with L309C/H310L and the 18-amino acid IgM tail piece) D221N; N297A
response (human Siglec-1): 0.96 OD 405nm | response (human FcγRIIA): 0.065 OD 405nm | response (human FcγRIIB): 0.069 OD 405nm | response (human FcγRIIIA): 0.07 OD 405nm | response (human FcγRIIIB): 0.073 OD 405nm | response [1]: 0.33 OD 405nm | response (human FcγRI): 0.065 OD 405nm | response (C1q): 0.93 OD 405nm

hexa-Fc (human IgG1-Fc with L309C/H310L and the 18-amino acid IgM tail piece) N297A; N563A
response (human Siglec-1): 0.15 OD 405nm | response [1]: 0.27 OD 405nm | response (C1q): 0.97 OD 405nm

hexa-Fc (human IgG1-Fc with L309C/H310L and the 18-amino acid IgM tail piece) D221N
response (human Siglec-1): 1.2 OD 405nm | response (human FcγRIIA): 0.12 OD 405nm | response (human FcγRIIB): 0.08 OD 405nm | response (human FcγRIIIA): 0.09 OD 405nm | response (human FcγRIIIB): 0.073 OD 405nm | response [1]: 0.64 OD 405nm | response (human FcγRI): 0.24 OD 405nm | response (C1q): 1.8 OD 405nm

hexa-Fc (human IgG1-Fc with L309C/H310L and the 18-amino acid IgM tail piece) N563A
response [1]: 0.84 OD 405nm | response (C1q): 2.3 OD 405nm

hexa-Fc (human IgG1-Fc with L309C/H310L and the 18-amino acid IgM tail piece) D221N; N297A; N563A
response (human Siglec-1): 1.7 OD 405nm | response [1]: 0.37 OD 405nm | response (C1q): 0.9 OD 405nm

hexa-Fc (human IgG1-Fc with L309C/H310L and the 18-amino acid IgM tail piece) N297A
response (human FcγRIIA): 0.065 OD 405nm | response (human FcγRIIB): 0.069 OD 405nm | response (human FcγRIIIA): 0.07 OD 405nm | response (human FcγRIIIB): 0.073 OD 405nm | response [1]: 0.28 OD 405nm | response (human FcγRI): 0.065 OD 405nm | response (C1q): 0.9 OD 405nm

hexa-Fc (human IgG1-Fc with L309C/H310L and the 18-amino acid IgM tail piece) D221N; N563A
response (human Siglec-1): 1.6 OD 405nm | response (human FcγRIIA): 0.33 OD 405nm | response (human FcγRIIB): 0.12 OD 405nm | response (human FcγRIIIA): 1.6 OD 405nm | response (human FcγRIIIB): 0.1 OD 405nm | response [1]: 0.57 OD 405nm | response (human FcγRI): 2 OD 405nm | response (C1q): 2.2 OD 405nm
